{"source": "the DeepSol protein solubility set"}
{"experiment": "soluble on expression in E. coli; label from the status in PepcDB or PDB records"}
{"sequence": "MGSDKIHHHHHHMMDRQFQHAMLPQPTHDELARQNFVQSLKTHIFRNISPGNKVVYEKLAKPKFEQEHQRPPQNRHEIREVMQHESYYRWTSALKRIHQEILWDAVNTSVGRQLPELIERAKDRGGELGTLTLDPNFQIPNYQKAVDIHCMPGGYHSEFTGGDVAAGATYDRGAYLYGLGWLGPLNNDMGLSIVQNYLLPEYPDFRPRKILDMGCSVGNSTLPYVDAYPDAEVHAIDVGAPMLRYGHARAEALGKRVHFWQQNAEHTNFPDESFDLVVSHILLHEIPPSAVRKVMQESYRLLAPGGIMLHLEAPLYRHLDVYTQFIFDWETANNNEPFWSAVRDLDLVTLATEAGFAPDKTFEKFVPNGAWKAKVTNGLFQNGNSGSLNTWFVVAATK", "soluble on expression in E. coli": "not soluble"}
{"sequence": "MKTVRESTTLYNFLGSHNPYWRLTESSDVLRFSTTETTEPDRTLQLSAEQAARIREMTVITSSLMMSLTVDESDLSVHLVGRKINKREWAGNASAWHDTPAVARDLSHGLSFAEQVVSEAHSAIVILDSRGNIQRFNRLCEDYTGLKEHDVIGQSVFKLFMSRREAAASRRNNRVFFRSGNAYEVELWIPTCKGQRLFLFRNKFVHSGSGKNEIFLICSGTDITEERRAQERLRILANTDSITGLPNRNAMQDLIDHAINHADNNKVGVVYLDLDNFKKVNDAYGHLFGDQLLRDVSLAILSCLEHDQVLARPGGDEFLVLASNTSQSALEAMASRILTRLRLPFRIGLIEVYTSCSVGIALSPEHGSDSTAIIRHADTAMYTAKEGGRGQFCVFTPEMNQRVFEYLWLDTNLRKALENDQLVIHYQPKITWRGEVRSLEALVRWQSPERGLIPPLDFISYAEESGLIVPLGRWVILDVVRQVAKWRDKGINLRVAVNISARQLADQTIFTALKQVLQELNFEYCPIDVELTESCLIENDELALSVIQQFSQLGAQVHLDDFGTGYSSLSQLARFPIDAIKLDQVFVRDIHKQPVSQSLVRAIVAVAQALNLQVIAEGVESAKEDAFLTKNGINERQGFLFAKPMPAVAFERWYKRYLKRA", "soluble on expression in E. coli": "not soluble"}
{"sequence": "GPGSMKRSRRATQQEDVMRALKEGVQALSVSSALSTKDLVCRGDHARAIQQFLEDEKHHTMQIFGMPGTGKTATVNFALAQLVSRRGTKPTAVFLNGFVVQKSSDIYYTLHHHLTKARLGAVEPCPVAQCASRIEKRFRHGWGGKPPALCVIVVDEVDKILEKHSKGFFKVVDWLTLPYANCKLITISNSMELQLDAKTKSRLGVVNQLVFSSYGTQELREILVHRVGAIEPKLFADQAVNQLCTQTASHYGDVRRLLQSASAAICGVLMRMRDDAVDVSSTDGIITLREIHTVVRQIFHDRFVEFITTMRMPALFITVAVLGKETEALIRKREVDCRIPLERLLAITQQAQRKCMNVLRPINRAAFMEEIELLRQVSLIEVCIGEDRIPIRCVDELLDAKEEVFVLLLQPYQMVVDSCRLHDAFGATYGAALHL", "soluble on expression in E. coli": "not soluble"}
{"sequence": "MKSLETMARYKKELTECARNLKLPFLAEHLDEILHEAQEKQQTYSEFLSTCLMRELRDKERRSYLTRLKFAGLPARYDLDLYDFSRTEGIDQRQMRELRELVWIRRTYNLLLVGDSGTGKTFIASGLIHEAVKAGYKAYLLTLEELFVCLKTKEISRPAMKTYKRIMKAQLLAIDDVTLFPLKGEDVLLLFKLVNCVQGKTSLIITASRDLTGWLEMAGDEVCAAALLDRLLYCCEIIRLSGKSYRMENRKTIFSNQQIGTASLEHHHHHH", "soluble on expression in E. coli": "not soluble"}
{"sequence": "MGSDKIHHHHHHMTISNQELTLTPLRGKSGKAYIGTYPNGERVFVKYNTTPILPALAKEQIAPQLLWARRTSNGDMMSAQEWLDGRTLTKEDMGSKQIIHILLRLHKSRPLVNQLLQLGYKIENPYDLLMDWEKQTPIQIRENTYLQSIVTELKRSLPEFRTEVATIVHGDIKHSNWVITTSGLIYLVDWDSVRLTDRMYDVAYILSHYIPQKHWKDWLSYYGYKDNEKVWSKIIWYGQFSYLSQIIKCFDKRDMEHVNQEIYELRKFRELIKKHNAS", "soluble on expression in E. coli": "not soluble"}
{"sequence": "MKYVEVIMSIKDEGEFFMKVLQKNEFLQKSNETLASILDMLEKLPVVKFDEIEADKAVLVIIDMTNGFAKEGALKSDAVKELIPRICELSEICDRRKIRKIAFADCHTDESPEFDAYPKHCMKGTAESEIVDEIKNIGGYTLIEKNSTNGFLEEAFRKWLLENPDINTFILTGDCTDICVQQFAITLKAYFNMNNKRARVIVPLNAVDTYDLGVHDRNLMNVMAAYNMIINGVEVVRDIVE", "soluble on expression in E. coli": "not soluble"}
{"sequence": "PAAGPSRVRQNFHPDSEAAINRQINLELYASYVYLSMAYYFSRDDVALNNFSRYFLHQSREETEHAEKLMRLQNQRGGRIRLQDIKKPEQDDWESGLHAMECALLLEKNVNQSLLELHALASDKGDPHLCDFLETYYLNEQVKSIKELGDHVHNLVKMGAPDAGLAEYLFDTHTLGNENKQN", "soluble on expression in E. coli": "soluble"}
{"sequence": "MRAEFVNPFLASLMNVLKTMASLELKPQKPRIKKDEIARGDVSGLIGMIGPTTRGSMSITFDESLALEIMQNMLGERPNGLNEEVTDMVGEITNMVTGGAKRILAESGFDFDMATPVVVSGRGHTIRHKCEGAIILMPFSSPWGNAFIEICFE", "soluble on expression in E. coli": "not soluble"}
{"sequence": "MVNIPNFIDKVLSVNDTSNASLTHCIKEADIDGVIEECKDILSAQATMVEVQAPIAVCGDIHGQYTDLLRIFNRCSFPPDQNYLFLGDYVDRGRQQLEVICLLMAYKVRYPNGFFILRGNHECASINRTYGFYDECKRRYSLALYNEFQNLFNSLPLCAMISGRIFCMHGGLSPELVSWTQLAKIIRPFDPPNACLAMDLLWADPENNHTGWGKNSRGVSYIFGANVVKDFTEKMNIDLIARGHQVVQDGYEFFADKRLVTIFSAPKYCGEFDNNAGIMIVDERLIISFEILKPAMREVKIQARAAAKNKSTRSILVSSRGPKSKKG", "soluble on expression in E. coli": "not soluble"}
{"sequence": "MFLAQPRGFCAGVVRAIEIVERALEKYGPPVYVRHEIVHNKYVVESLKAKGAIFVEELSEVPPKAVTVFSAHGVARSIEEEAAARDLPVLNATCPLVTKVHNQGKRYTSKGRTLILIGHAGHPEVEGTMGQVPGPVLLVQNLDDVAALTLPPETPVAYITQTTLSVDDTKDIIVALSKKFHDIEGPDTRDICYATQNRQSAVRQMSKLVDLILVVGANNSSNSNRLREIGTEAGIPSYLIADGSELDPAWLDGKKAVGITAGASAPEVLVDDVIEALRRIVPVTVSVLPGREENIEFVLPAELATALEHHHHHH", "soluble on expression in E. coli": "not soluble"}
{"sequence": "MGSDKIHHHHHHAAPAPQAPALPANLTTRTWVLTDLAPGGKLRRVTGERPTLTWTVQPGGLQLSGSTGCNTYRGPATVTGQQLKVSALATTRRGCAPTQAQQENDFLTLLRGASHYRLSGQTLTVYAASTARLVFTAAPGGSMTTPSNTPAGANTPTGTTLKAAQLAGDWQLTDLREGGQAVTLPADAPFTFTASGTNTLRLSGMAGCNRLMGEVTLSGAGLTFGPLAATRMACEDMTAEQALSRVLQGSGQVTLKGDTLTWHRSGGEVVLTRRAPAATTADLSGSYRLLSVNGTAADARRTVSLTFKAGQVGGFDGCNSFGGEYSLDKAGHLTAGNLVTTLRACPDQLDQPILTALLGQAPTVQLRGRTLTLDAGGERWVFERE", "soluble on expression in E. coli": "not soluble"}
{"sequence": "MTINFRRNALQLSVAALFSSAFMANAADVPQVKVTVTDKQCEPMTITVNAGKTQFIIQNHSQKALEWEILKGVMVVEERENIAPGFSQKMTANLQPGEYDMTCGLLTNPKGKLIVKGEATADAAQSDALLSLGGAITAYKAYVMAETTQLVTDTKAFTDAIKAGDIEKAKALYAPTRQHYERIEPIAELFSDLDGSIDAREDDYEQKAADPKFTGFHRLEKALFGDNTTKGMDQYAEQLYTDVVDLQKRISELAFPPSKVVGGAAGLIEEVAASKISGEEDRYSHTDLWDFQANVEGSQKIVDLLRPQLQKANPELLAKVDANFKKVDTILAKYRTKDGFETYDKLTDADRNALKGPITALAEDLAQLRGVLGLD", "soluble on expression in E. coli": "soluble"}
{"sequence": "VKSYKSGASAIDVIVTTPDIARINAIAAMKKGSALTTEETMQVPAAGWPVMIFSHGITSYKETVLAISGTLASQGIATISIDHPYHGARGIDFNADGVYEISATSSLSDSDPAYVNANVTSYMNLASLLTARDNVRQSEVDLLALRLSLNSVNLAGQLDATKVSFLGHSLGAITGIPVMALANSGI", "soluble on expression in E. coli": "not soluble"}
{"sequence": "MMSRVTCSHMSFQTAIRPAESVDIADIRRVARATWHTVYDDILGAETVEEHLKEGYTPPLLEQMIELDEVGLFVSTADDDVVAYMSCGMTDATGFGDLDLYVHPDYWGEGIGTELLHRGEQHLHDLSVRKIRDEVLAENEVGNAFYRAHFEKVGQRTAKVGGQEHPVNVYERRL", "soluble on expression in E. coli": "not soluble"}
